Reference: article PMC11187117, “Structure of the endosomal CORVET tethering complex” (Nature Communications, 2024)

Columns and labels:
Assay in all cases: cryo-EM structure; single-particle cryo-EM of the hexameric CORVET co-expressed in yeast and purified by 3xFLAG on Vps8 and SEC; about 0.8 mg/ml; consensus map 4.6 Å, local refinements to 3.8 Å
Details in all cases: both partners purified
Vps3 (CORVET subunit) = biological target: T1, Vps3 (CORVET subunit) (yeast, UniProt P23643 1-1011)
T1 construct: UniProt P23643 printed for its AlphaFold model; N-terminal half (with the β-propeller) was removed from the deposited model; source: yeast lysate in the Vps8-ALFA pull-downs
T1 sequence: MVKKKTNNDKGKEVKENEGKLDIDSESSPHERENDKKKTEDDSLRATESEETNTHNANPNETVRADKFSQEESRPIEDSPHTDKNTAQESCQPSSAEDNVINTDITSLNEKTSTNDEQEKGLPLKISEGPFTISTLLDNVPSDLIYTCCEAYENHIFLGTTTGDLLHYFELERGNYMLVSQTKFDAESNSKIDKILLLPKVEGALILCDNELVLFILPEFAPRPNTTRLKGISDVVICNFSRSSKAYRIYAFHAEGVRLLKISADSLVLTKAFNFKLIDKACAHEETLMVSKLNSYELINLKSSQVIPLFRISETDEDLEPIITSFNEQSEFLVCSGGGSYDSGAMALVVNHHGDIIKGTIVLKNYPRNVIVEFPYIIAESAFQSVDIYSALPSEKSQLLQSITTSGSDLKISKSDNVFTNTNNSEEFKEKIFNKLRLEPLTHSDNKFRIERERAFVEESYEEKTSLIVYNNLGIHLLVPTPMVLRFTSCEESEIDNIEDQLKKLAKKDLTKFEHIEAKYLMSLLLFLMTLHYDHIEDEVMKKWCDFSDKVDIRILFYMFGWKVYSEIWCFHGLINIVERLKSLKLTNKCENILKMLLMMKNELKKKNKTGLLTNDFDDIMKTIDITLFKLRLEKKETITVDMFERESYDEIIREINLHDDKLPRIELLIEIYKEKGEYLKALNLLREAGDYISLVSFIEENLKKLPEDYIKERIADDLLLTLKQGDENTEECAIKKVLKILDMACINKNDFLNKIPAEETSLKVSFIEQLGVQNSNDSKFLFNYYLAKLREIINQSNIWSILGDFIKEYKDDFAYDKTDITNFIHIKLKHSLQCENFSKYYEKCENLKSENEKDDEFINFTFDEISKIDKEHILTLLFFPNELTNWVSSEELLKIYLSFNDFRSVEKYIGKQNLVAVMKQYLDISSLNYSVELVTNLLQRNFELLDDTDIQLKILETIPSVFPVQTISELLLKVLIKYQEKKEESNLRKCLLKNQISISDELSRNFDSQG

[1] = biological target: T2, Vps8 with 3xFLAG tag (CORVET subunit) (yeast, UniProt P39702 1-1274)
T2 construct: UniProt P39702 printed for its AlphaFold model
T2 sequence: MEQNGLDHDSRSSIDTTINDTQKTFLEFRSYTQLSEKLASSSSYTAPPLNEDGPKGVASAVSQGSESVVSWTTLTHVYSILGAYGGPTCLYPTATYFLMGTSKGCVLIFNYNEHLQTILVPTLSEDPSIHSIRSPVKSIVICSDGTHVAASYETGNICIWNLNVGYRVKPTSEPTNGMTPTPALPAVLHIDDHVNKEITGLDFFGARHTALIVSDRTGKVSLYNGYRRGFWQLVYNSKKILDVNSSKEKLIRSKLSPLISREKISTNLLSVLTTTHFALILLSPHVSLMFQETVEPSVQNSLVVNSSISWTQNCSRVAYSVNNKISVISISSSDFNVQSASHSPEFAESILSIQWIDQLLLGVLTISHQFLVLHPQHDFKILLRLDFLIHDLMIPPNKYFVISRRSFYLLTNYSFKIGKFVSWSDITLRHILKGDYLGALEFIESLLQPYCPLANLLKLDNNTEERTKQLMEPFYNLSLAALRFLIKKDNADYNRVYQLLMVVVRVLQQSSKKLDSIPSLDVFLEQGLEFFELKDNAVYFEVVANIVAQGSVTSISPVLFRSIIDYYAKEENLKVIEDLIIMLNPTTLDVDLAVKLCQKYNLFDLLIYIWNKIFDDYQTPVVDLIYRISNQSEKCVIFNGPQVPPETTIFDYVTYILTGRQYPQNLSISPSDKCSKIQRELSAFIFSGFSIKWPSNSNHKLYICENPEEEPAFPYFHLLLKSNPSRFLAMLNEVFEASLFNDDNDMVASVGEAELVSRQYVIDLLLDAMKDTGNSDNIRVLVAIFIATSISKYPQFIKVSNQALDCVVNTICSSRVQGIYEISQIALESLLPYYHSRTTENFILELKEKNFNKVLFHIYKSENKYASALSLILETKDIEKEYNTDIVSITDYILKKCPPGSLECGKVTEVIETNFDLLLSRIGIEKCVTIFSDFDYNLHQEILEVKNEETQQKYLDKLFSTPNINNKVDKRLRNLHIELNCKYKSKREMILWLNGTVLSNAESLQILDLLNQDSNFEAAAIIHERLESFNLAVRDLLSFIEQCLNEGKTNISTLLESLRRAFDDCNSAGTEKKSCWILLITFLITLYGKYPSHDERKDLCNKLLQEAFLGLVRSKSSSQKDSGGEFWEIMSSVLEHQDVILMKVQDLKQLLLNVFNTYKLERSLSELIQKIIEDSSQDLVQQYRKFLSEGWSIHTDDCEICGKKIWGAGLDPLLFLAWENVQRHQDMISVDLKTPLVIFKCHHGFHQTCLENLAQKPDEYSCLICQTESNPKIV

[2] = biological target: T3, Vps11 (CORVET and HOPS core subunit) (yeast, UniProt P12868 1-1029)
T3 construct: Vps11, yeast, core subunit shared by CORVET and HOPS
T3 sequence: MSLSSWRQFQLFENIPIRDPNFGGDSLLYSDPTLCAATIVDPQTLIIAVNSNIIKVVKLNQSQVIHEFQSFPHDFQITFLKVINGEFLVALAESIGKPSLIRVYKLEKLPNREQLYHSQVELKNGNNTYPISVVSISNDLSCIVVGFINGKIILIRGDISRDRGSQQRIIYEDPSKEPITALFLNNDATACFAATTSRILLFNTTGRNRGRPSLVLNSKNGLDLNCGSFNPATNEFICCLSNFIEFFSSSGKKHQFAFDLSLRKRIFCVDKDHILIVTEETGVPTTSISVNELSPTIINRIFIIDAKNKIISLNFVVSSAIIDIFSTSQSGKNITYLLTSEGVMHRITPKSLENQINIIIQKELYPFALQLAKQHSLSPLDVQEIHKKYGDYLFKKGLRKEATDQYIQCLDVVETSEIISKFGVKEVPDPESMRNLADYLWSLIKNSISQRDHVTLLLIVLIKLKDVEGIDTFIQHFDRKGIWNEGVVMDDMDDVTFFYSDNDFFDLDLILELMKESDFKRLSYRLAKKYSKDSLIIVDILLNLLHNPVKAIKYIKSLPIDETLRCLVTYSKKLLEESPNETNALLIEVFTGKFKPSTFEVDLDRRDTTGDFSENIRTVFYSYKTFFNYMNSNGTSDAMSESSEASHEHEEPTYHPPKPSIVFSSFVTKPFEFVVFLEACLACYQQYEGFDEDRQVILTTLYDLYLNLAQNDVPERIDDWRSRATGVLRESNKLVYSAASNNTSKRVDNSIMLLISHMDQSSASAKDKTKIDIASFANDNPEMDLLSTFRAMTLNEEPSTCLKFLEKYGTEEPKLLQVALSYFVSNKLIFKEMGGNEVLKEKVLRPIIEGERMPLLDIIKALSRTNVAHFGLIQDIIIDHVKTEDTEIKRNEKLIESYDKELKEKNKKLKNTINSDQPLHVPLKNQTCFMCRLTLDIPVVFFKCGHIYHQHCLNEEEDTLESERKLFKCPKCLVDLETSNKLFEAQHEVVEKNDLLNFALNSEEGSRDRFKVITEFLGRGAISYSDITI

Measured: binding result

B1: Vps18 (CORVET and HOPS core subunit) (natural protein, yeast)
chain: MIKTRIEEVQLQFLTGNTELTHLKVSNDQLIVTTQRTIYRINLQDPAIVNHFDCPLSKELETIMNVHVSPMGSVILIRTNFGRYMLLKDGEFTQLNKIKNLDLSSLHWINETTFLMGIKKTPKLYRVELTGKDITTKLWYENKKLSGGIDGIAYWEGSLLLTIKDNILYWRDVTNMKFPLVLPDESEQFERLKHHAIKKFDSYNGLFAWVTSNGIVFGDLKEKQMEKDPASNNFGKFLSSSKVLLNFELPDYQNDKDHLIKDIVLTAFHILLLRKNTVTMVSQLNNDVVFHETIPRHQLTGSNTDSNEKFLGLVRDSVKETFWCFSNINVFEIIIENEPNSVWNLLVRDNKFDKALSLKGLTVREIESVKLSKAMYLFHTAKDFHSAAQTLGSMKDLSHFGEIALNFLQIKDYNDLNVILIKQLDNVPWKSTQVVLSSWIIWNFMKQLNDIELKINTTKPASTDEDNLLNWNLNLKEKSNELTKFLESHLEKLDNETVYQIMSKQNRQNELLIFASLINDMKFLLSFWIDQGNWYESLKILLTINNHDLVYKYSLILLLNSPEATVSTWMKIKDLDPNKLIPTILKFFTNWQNNSKLITNISEYPENYSLTYLKWCVREVPKMCNPIVYNSILYMMITDPRNDMILENDIIKFMKSNENKYDLNFQLRLSLKFKKTKTSIFLLTRLNLFEDAIDLALKNNLIDDCKVIVNDEILIEDYKLRKRLWLKIAKHLLLSMKDIDIKQLIRTILNDSNEILTIKDLLPFFNEYTTIANLKEELIKFLENHNMKMNEISEDIINSKNLKVEINTEISKFNEIYRILEPGKSCDECGKFLQIKKFIVFPCGHCFHWNCIIRVILNSNDYNLRQKTENFLKAKSKHNLNDLENIIVEKCGLCSDININKIDQPISIDETELAKWNE
notes: Vps18, yeast, core subunit shared by CORVET and HOPS
binds: Vps3 (CORVET subunit) | [1] | [2]
